Experimental data taken from the DeepSol protein solubility set.

Assay: soluble on expression in E. coli; label from the status in PepcDB or PDB records

Sequence	soluble on expression in E. coli
MSLYVDAGLQPLDKNNKKLVQVHIPEGSSNKQIAAVLEESNVIKSGMVFNYYVKFKNLTDFQAGYYQMSPSMTLDEIGEMLKEGGTPEPTKIADGKVTIPEGYDIDKIGEAIEKNTDFKKADFIALMKNEDFFNQMKAKYPDLLESAATAEGVRYRLEGYLFPATYDYYKKATLPEFVEQMIAKMNTVMEQYTPTIHAKNLTNQQVLTLASLVEKEGVKEADRKQIAQVFFNRLAADMPIQSDISILYALGEHKETVTYADLEVDSSYNLYKNTGYGPGPLDSPSEESIKAVLNPTPSDYLYFVADISTGKVYFSKTYEEHQVLVDQYVNNSSSEEGHHHHHH	soluble
MNVLIVDDEPLARERLSRMVNEIEGYRVLEDSASNGEEALALIEKHKPDVVLLDIRMPGIDGLQVAAKLCEREAPPAVVFCTAHDEFALEAFQVSAVGYLVKPVRAEHLIEALKKAERPNRVQLAAMTRPAAESGSGPRTHISARTRKGIELIPLDQVIYFIADHKYVTLRHEGGEVLLDEPLKALEDEFGDRFVRIHRNALVARKRIESMKRTPVGHFELFLRGLNGDALIVSRRHVAGVRKMMQQL	soluble
MHKNGNNGPVIDTKWHYLGPDSEKYGPYMSKDMLFWLQAGYFNDGLQLKTENEPNYHTLGEWSQLLGTHPFSMPVHSLDATIAQMNSMRPHGAMMMVPPGLQNQFQPPMPMRFPPFLPMPLLHQMNQNGPPMGAQMHSQPPSEPIDAGSLSHTPDSENETRLNEQTLQQPPSWLIALGLAGHGRKPHHHQQILAHQHIPQMQHANVATDQVVMKSVECQTEPVEISKEQASRVLSELLGQMVIIN	not soluble
MVDVIALGEPLIQFNSFNPGPLRFVNYFEKHVAGSELNFCIAVVRNHLSCSLIARVGNDEFGKNIIEYSRAQGIDTSHIKVDNESFTGIYFIQRGYPIPMKSELVYYRKGSAGSRLSPEDINENYVRNSRLVHSTGITLAISDNAKEAVIKAFELAKSRSLDTNIRPKLWSSLEKAKETILSILKKYDIEVLITDPDDTKILLDVTDPDEAYRKYKELGVKVLLYKLGSKGAIAYKDNVKAFKDAYKVPVEDPTGAGDAMAGTFVSLYLQGKDIEYSLAHGIAASTLVITVRGDNELTPTLEDAERFLNEFKT	soluble
GGGSCYFIPNEGVPGDSTRKCMDLKGNKHPINSEWQTDNCETCTCYETEISCCTLVSTPVGYDKDNCQRIFKKEDCKYIVVEKKDPKKTCSVSEWII	soluble
MEIRWMKSFVAVAEELNYGRAAEVLHIAQPAVSQQVQQLEKRLGVKLFDRTTRSVRLTAAGERFLQPCKDALAGIVRAVDAAVIADPAVEGRVRVGFSGAYGQTELSSLARSVRRRYPLIDLVLEGATVSGQILDEIWEGQLDLGIVSDAVSHPHVLTRQISVEYLSALLPSDHPLAERKSIDLAELRDETFVANPAATGSTLRRDLLAACRDAGFTPNIVQETTDGIVLTALVAAGVGVALVPGDVQTYPNRVVLVPLDAGRYEVRAALAWSDRPVSPVVQTVLDLAAEVLPSPDALAVEQ	not soluble
PEMQSMIVAEINPAYRSLIADEPQIAPLLQDKRVEIVLDDGRKWLRRHPDEKFDLILMNTTWYWRAYSTNLLSAEFLKQVQSHLTPDGIVMFNTTHSPHAFATAVHSIPYAYRYGHMVVGSATPVVFPNKELLKQRLSRLIWPESGRHVFDSSTVDAAAQKVVSRMLIQMTEPSAGAEVITDDNMIVEYKYGRGI	not soluble
MEYFMSGKSIFDKLWDRHVITGDEGQPQLMYVDQHYIHEVTSPQAFQGLRDAGRKVRRPDLTFGTFDHNVPTVNIFDIRDAISKAQIDKLAENVIEFGIDNASHGSDKQGIVHMVGPETGRTQPGKFIVCGDSHTATHGAFGTIAFGIGTSEVEHVFATQTLWQVKPKK	not soluble
MVCSGAPVALIPTSSGAIMLDYPSMRAVALVARTGSFEKAAQVLCVTPSAVSQRIKQLEERLGVVLIVRGNPCVATEKGEWLCRHMDHVGMLESELFRQLPALTEAGDAQERVTLNIATNADSLGTWFLDAVSKFTGGSDYLVNIAVDDQDHTVEWLRGGRVLAAVTAHDKPVQGCRVTPLGVLRYHATASPDFMARHFADGVTPAALARAPGLTFNQKDRLQASWIRTALGEDVSYPTHWLPSTDGFVKASLAGMGWGLNPVQLVAEHLAAGRLVELMPGTPLDIPLYWQVNRLAAERLAGLTANMVGTARVVLMPVG	soluble
MRLTNYSDYALRILTYLGLKREELSTITEIADCYGISRNHVVKIVHHLGQLGYVDTLRGKNGGIRLAHAPEKINIGEVIRHTETSMDIVECFSNQNSCIIGCSCVLRTAISEALSAFMAVLDDYTLADLIAPRRQLSRKLHVMQISDSLSD	not soluble
MSLQRESLDILKLSQAIKKCDAILIGAGAGLSSAAGLSYSGNRFKKYFNDFITKYHLQDMYSAGFYPYPSLEKYWAYWSRHIYYNRYLEAPKDTYKKLLNLLINKDYFVITTNVDHQFQIAGFIKEKLFYTQGDYGLWQCSKPCHQKTYDNYETVVTMIKQQHDLKIPSSLIPYCPICNAPMTMNLRCDKTFVQDSGWYHAQERYYHFLNKYHYSKIVYLELGVGYNTPGIIKYPFWQLTIENPKAIYACINQDIIDLPSELKKQTIMINDNIHNVLSSLEKLLEGHHHHHH	soluble
MDRLDRKILRILQEDSTLAVADLAKKVGLSTTPCWRRIQKMEEDGVIRRRVALLDPVKVNTKVTVFVSIRTASHSIEWLKRFSEVVSEFPEVVEFYRMSGDVDYLLRVVVPDIAAYDAFYKRMIAKIEIRDVSSAFAMEQIKYTTELPLDYMLLDNPKSGEE	soluble
MQKESQTYKIAPAERLASVSEYYFSKKLKEVAQMNAEGKDVISLGIGSPDMPPSKVTIETLCNNAHDPNGHGYQPYVGIPELRKGFAAWYQRWYGVELNPNTEIQPLIGSKEGILHVTLAFVNPGEQVLVPNPGYPTYTSLSKILGAEVISYDLKEEDGWMPDFEALEKMDLNRVKLMWTNYPNMPTGANATPELYERLVDFARRKNIVIVNDNPYSFILNEKPISILSVPGAKECCIEFNSMSKSHNMPGWRIGMLASNAEFVQWILKVKSNIDSGMFRAMQLAAATALEAEADWYEGNNHNYRGRRHLAGEIMKTLGCTYDENQVGMFLWGKIPASCKDVEELTEKVLHQARVFITPGFIFGSNGARFIRISLCCKDAKLAEALERIKKLS	not soluble
MNSPPINEFIQAVVYDHSIATGLKACKTDQDIVDYAASKGFIFSSSEWQLYLALDRKTLSDSELAKILVVPVEHWSWAFRKVALWRAMLMDGV	not soluble
GSFLPNSEQQKSVDIVFSSPQDLTVSLIPVSGLKAGKNAPSAKIAKLVVNSTTLKEFGVRGISNNVVDSTGTAWRVAGKNTGKEIGVGLSSDSLRRSDSTEKWNGVNWMTFNSNDTLDIVLTGPAQNVTADTYPITLDVVGYQP	soluble
MYEGLLIDIDYLLNVVKELKINFDKKIKTLNLLIERNIPIVLYTENNKEYVDTIMKYLKIKEPAIIVEGAQIYSPFDLSYEAVFPLSINTVCKLGNWAMDRKMDMSISTDKKVIDYSEWLKELRQVNYKNAGDKLPSAVKVDICMKNDDKRIELLNFIGKNNLECYAHMYLNHVACINSIVDKGNTLKYLANKKKWDIKKFAMIGDYSKDTSIFDEVGFLMSISDFTKDFEKNFDKTLKSDMMSIV	soluble
MGKIKIGINGFGRIGRLVARVALQSEDVELVAVNDPFITTDYMTYMFKYDTVHGQWKHSDIKIKDSKTLLLGEKPVTVFGIRNPDEIPWAEAGAEYVVESTGVFTDKEKAAAHLKGGAKKVVISAPSKDAPMFVCGVNEDKYTSDIDIVSNASCTTNCLAPLAKVIHDNFGIIEGLMTTVHAITATQKTVDGPSSKDWRGGRAASFNIIPSSTGAAKAVGKVLPDLNGKLTGMSFRVPTVDVSVVDLTVRIEKAASYDAIKSAIKSASEGKLKGIIGYVEEDLVSTDFVGDSRSSIFDAKAGIALNDNFVKLVAWYDNEWGYSNRVIDLIRHMAKTQ	soluble
MSLVMSGEKMKVIIVEDEFLAQQELSWLINTHSQMEIVGSFDDGLDVLKFLQHNKVDAIFLDINIPSLDGVLLAQNISQFAHKPFIVFITAWKEHAVEAFELEAFDYILKPYQESRIINMLQKLTTAWEQQNNAASGLASAAPRENDTINLIKDERIIVTSIHDIYYAEAHEKMTFVYTRRESFVMPMNITEEGHHHHHH	not soluble
MSLKVWITGAGGMMGSHLAEMLLAAGHDVYATYCRPTIDPSDLQFNGAEVDITDWCSVYDSIATFRPDAVFHLAAQSYPAVSWARPVETLTTNMVGTAIVFEALRRVRPHAKIIVAGSSAEYGFVDPSEVPINERRELRPLHPYGVSKAATDMLAYQYHKSYGMHTVVARIFNCTGPRKVGDALSDFVRRCTWLEHHPEQSAIRVGNLKTKRTIVDVRDLNRALMLMLDKGEAGADYNVGGSIAYEMGDVLKQVIAACKRDDIVPEVDPALLRPTDEKIIYGDCSKLAAITGWQQEICLTQTIADMFDYWRSKSESAEGHHHHHH	soluble
MSLSDVSRILKEARSQSRLTTLDYAEQIFDDFMELHGDRHFADDGAIVGGIGLLDGQAVTVIGVQKGKNLQDNLNRNFGQPNPEGYRKALRLMKQAEKFKRPVVTFINTAGAYPGIGAEERGQGEAIARNLLEMSDLKVPIIAIIIGEGGSGGALALAVADKVWMLEHTMYAVLSPEGFASILWKDGSRSIEAAELMKITAGELLKMEVVDKVIPEHGYFSSEIIQMLKTNLIEELKNLDQYPLNDLLEKRYQRFRKYEGHHHHHH	soluble
MGSDKIHHHHHHMMKKTHYNILMVNLPFSGHTNPTLGLAQILVQLGHNVTYINAPDWQSKIERTGAHFVPYDHYPDSLSERQKKVKSWSAAYQTVLRMGKDYDCLIYEMLFFPGKALADRLNIPAYRLFSTFSLNEKILTEFGKTGGFYLTSIFRFTFLRHLLSRKLQRTFQLAYDDLAKEISLNTPELNFTYTVREFQIDADTFDENHYQYVGPSINRPVEPPFDFTPFKNPIIYISLGTLLNRSVSFFKKCIKAFENEPYSIIISLGNRIKKEQLGTMPANVHLYSFVPQLQILERASLFLTHGGMNSVNEAIYYGCPMLVIPVGNDQPRVAQQVADLHLGKCLKCHNLNPQEIKQAAHTILKDSSYKNTIWHFQKIAQTAGGNTLIAQTIIKDLQTKP	not soluble
MRILDYDKVIERILEFIREKGNNGVVIGISGGVDSATVAYLATKALGKEKVLGLIMPYFENKDVEDAKLVAEKLGIGYKVINIKPIVDSFVENLELNLDRKGLGNIMSRTRMIMLYAHANSLGRIVLGTSNRSEFLTGYFTKWGDGASDYAPIINLYKTEVWEIAKRIGVPERIVKKKPSAGLWEGQTDEDELGISYNLLDEILWRMIDLKIGKEEIAKDLGIPLSLVERVEELIKKSEHKRRLPIGPSFEDLIVGP	soluble
MSAKHPVIAVTGSSGAGTTTTSLAFRKIFAQLNLHAAEVEGDSFHRYTRPEMDMAIRKARDAGRHISYFGPEANDFSLLEHTFIEYGQTGKGQSRKYLHTYDEAVPWNQVPGTFTPWQPLPEPTDVLFYEGLHGGVVTPQHDVARHVDLLVGVVPIVNLEWIQKLIRDTSERGHSREAVMDSVVRSMDDYINYITPQFSRTHINFQRVPTVDTSNPFAAKGIPSLDESFVVIHFRNLEGIDFPWLLAMLQGSFISHINTLVVPGGKMGLAMELIMLPLVQRLMEGKKIE	not soluble
MAQRGRKPKPTALKILEGNPGKRPLNEDEPKPEKKAPKCPGWLDAEAKKEWRRMSKQLEAMGILTEIDMAAFAGYCQAYARWKEAEEFITKHGTIVKTPSGYWQQVPQVSIAQTYLKIMNRFCEQFGLTPSARSRIVTDNINDEEDPMELILYKGGSKSV	soluble
MLRVIVESASNIPKTKFGKPDPIVSVIFKDEKKKTKKVDNELNPVWNEILEFDLRGIPLDFSSSLGIIVKDFETIGQNKLIGTATVALKDLTGDQSRSLPYKLISLLNEKGQDTGATIDLVIGYDPP	soluble
